B1: Twister Ribozyme (parent)
chain: AACACUGCCAAUGCCGGUCCCAAGCCCGGAUAAAAGUGGAGGGGGCGG

Variants of: B1
Experiment: self-cleavage, relative activity (ratio to wild type); higher = more cleavage; co-transcriptional

Row | Variant | self-cleavage
1 | AACACUGCCAAUGCCUGUCCCAAGCCCGGAUAAAAGUGGAGGGGGCCG [G16U G47C] | 0.426
2 | AACACUGCCAAUGCCCGUCCCAAGCCCGGAUAAAAGGGGAGGGGGCGG [G16C U37G] | 0.134
3 | AACACUGCCAAUGCCUGUCCCAAGCCCGGAUCAAAGUGGAGGGGGCGG [G16U A32C] | 1.1
4 | AACACUGCCAAUGCCUGUCCCAAGCCCGGAUAUAAGUGGAGGGGGCGG [G16U A33U] | 0.88
5 | AACACUGCCAAUGCCUGUCCCAAGCCCGGAUAGAAGUGGAGGGGGCGG [G16U A33G] | 0.597
6 | AACACUGCCAAUGCCUGUCCCAAGCCCGGAUACAAGUGGAGGGGGCGG [G16U A33C] | 0.66
7 | AACACUGCCAAUGCCGAUCCCAAGCCCGGAUAAACGUGGAGGGGGCGG [G17A A35C] | 0.637
8 | AACACUGCCAAUGCCGAUCCCAAGCCCGGAUAAAGGUGGAGGGGGCGG [G17A A35G] | 0.262
9 | AACACUGCCAAUGCCUGUCCCAAGUCCGGAUAAAAGUGGAGGGGGCGG [G16U C25U] | 0.809
10 | AACACUGCCAAUGCCCGUCCCAAGCCGGGAUAAAAGUGGAGGGGGCGG [G16C C27G] | 0.608
11 | AACACUGCCAAUGCCUGUCCCAAGCCUGGAUAAAAGUGGAGGGGGCGG [G16U C27U] | 1.16
12 | AACACUGCCAAUGCCUGUCCCAAGCCGGGAUAAAAGUGGAGGGGGCGG [G16U C27G] | 0.941
13 | AACACUGCCAAUGCCCGUCCCAAGCCCGGAUAAAAGUGGAGGCGGCGG [G16C G43C] | 0.161
14 | AACACUGCCAAUGCCCGUCCCAAGCCCGGAUAAAAGUGGAGGUGGCGG [G16C G43U] | 0.11
15 | AACACUGCCAAUGCCUGUCCCACGCCCGGAUAAAAGUGGAGGGGGCGG [G16U A23C] | 0.115
16 | AACACUGCCAAUGCCUGUCCCAGGCCCGGAUAAAAGUGGAGGGGGCGG [G16U A23G] | 0.0652
17 | AACACUGCCAAUGCCUGUCCCAAGCCCGGAUAAAAGUGGAGGGGGAGG [G16U C46A] | 0.662
18 | AACACUGCCAAUGCCUGUCCCAAGCCCGGAUAAAAGUGGAGGGGGUGG [G16U C46U] | 1.02
19 | AACACUGCCAAUGCCUGUCCCAAGCGCGGAUAAAAGUGGAGGGGGCGG [G16U C26G] | 0.136
20 | AACACUGCCAAUGCCUGUCCCAAGCACGGAUAAAAGUGGAGGGGGCGG [G16U C26A] | 0.45
21 | AACACUGCCAAUGCCUGUCCCAAGCUCGGAUAAAAGUGGAGGGGGCGG [G16U C26U] | 0.15
22 | AACACUGCCAAUGCCCGUCCCAAGCCCCGAUAAAAGUGGAGGGGGCGG [G16C G28C] | 0.306
23 | AACACUGCCAAUGCCCGUCCCAAGCCCGGAUAAAAGUGGAGGGAGCGG [G16C G44A] | 0.803
24 | AACACUGCCAAUGCCCGUCCCAAGCCCGGAUAAAAGUGGAGGGUGCGG [G16C G44U] | 0.81
25 | AACACUGCCAAUGCCCGUCCCAAGCCCGGAUAAAAGUGGAGGGCGCGG [G16C G44C] | 0.649
26 | AACACUGCCAAUGCCUGUCCCAAGCCCGGGUAAAAGUGGAGGGGGCGG [G16U A30G] | 0.761
27 | AACACUGCCAAUGCCUGUCCCAAGCCCGGAUAAAAGUCGAGGGGGCGG [G16U G38C] | 1.02

Row | Variant | self-cleavage
28 | AACACUGCCAAUGCCUGUCCCAAGCCCGGAUAAAAGUAGAGGGGGCGG [G16U G38A] | 0.935
29 | AACACUGCCAAUGCCGAUCCCAAGCCCGGAUAAAAGUGGAGGGGGAGG [G17A C46A] | 0.322
30 | AACACUGCCAAUGCCGAUCCCAAGCCCGGAUAAAAGUGGAGGGGGGGG [G17A C46G] | 0.592
31 | AACACUGCCAAUGCCGAUCCCAAGCCCGGAUAAAAGUGGAGGGGGUGG [G17A C46U] | 0.774
32 | AACACUGCCAAUGCCGAUCCCAAGCCCGGAUAAAAGUGGAGGGGGCGG [G17A] | 0.783
33 | AACACUGCCAAUGCCCGUCCCAAGCCCGGAUAAAAGUGGAGGGGGUGG [G16C C46U] | 0.78
34 | AACACUGCCAAUGCCCGUCCCAAGCCCGAAUAAAAGUGGAGGGGGCGG [G16C G29A] | 0.222
35 | AACACUGCCAAUGCCCGUCCCAAGCCCGCAUAAAAGUGGAGGGGGCGG [G16C G29C] | 0.117
36 | AACACUGCCAAUGCCUGUCCCAACCCCGGAUAAAAGUGGAGGGGGCGG [G16U G24C] | 0.118
37 | AACACUGCCAAUGCCUGUCCCAAGCCCGGAUAAAAGUGGAGGGGACGG [G16U G45A] | 0.608
38 | AACACUGCCAAUGCCUGUCCCAAGCCCGGAUAAAAGUGCAGGGGGCGG [G16U G39C] | 0.173
39 | AACACUGCCAAUGCCUGUCCCAAGCCCGUAUAAAAGUGGAGGGGGCGG [G16U G29U] | 0.87
40 | AACACUGCCAAUGCCGAUUCCAAGCCCGGAUAAAAGUGGAGGGGGCGG [G17A C19U] | 0.281
41 | AACACUGCCAAUGCCGAUACCAAGCCCGGAUAAAAGUGGAGGGGGCGG [G17A C19A] | 0.104
42 | AACACUGCCAAUGCCGAUGCCAAGCCCGGAUAAAAGUGGAGGGGGCGG [G17A C19G] | 0.14
43 | AACACUGCCAAUGCCUGUCCCAAGCCCGGAUAAAAGUGGCGGGGGCGG [G16U A40C] | 0.156
44 | AACACUGCCAAUGCCUGUCCCAAGCCCGGAUAAAAGUGGUGGGGGCGG [G16U A40U] | 0.137
45 | AACACUGCCAAUGCCGAUCCCAAGCCCGGCUAAAAGUGGAGGGGGCGG [G17A A30C] | 0.275
46 | AACACUGCCAAUGCCUGUCCCAAGCCCGGAUAAAAGAGGAGGGGGCGG [G16U U37A] | 0.436
47 | AACACUGCCAAUGCCUGUCCCAAGCCCGGAUAAAAGGGGAGGGGGCGG [G16U U37G] | 0.409
48 | AACACUGCCAAUGCCCGUCCCAAGCCCGGAUAAAAGUGGAGGGGGCUG [G16C G47U] | 0.602
49 | AACACUGCCAAUGCCCGUCCCAAGCCCGGAUAAAAGUGGAGGGGGCCG [G16C G47C] | 0.268
50 | AACACUGCCAAUGCCCGUCCCAAGCCCGGAUAAAAGUGGAGGGGGCAG [G16C G47A] | 0.165
51 | AACACUGCCAAUGCCCGUCCCAAGCCCGGAUAAAAGUGUAGGGGGCGG [G16C G39U] | 0.144
52 | AACACUGCCAAUGCCUGUCCCAAGCCCGGAAAAAAGUGGAGGGGGCGG [G16U U31A] | 1.05
53 | AACACUGCCAAUGCCUGUCCCAAGCCCGGACAAAAGUGGAGGGGGCGG [G16U U31C] | 0.725
54 | AACACUGCCAAUGCCGAUCCAAAGCCCGGAUAAAAGUGGAGGGGGCGG [G17A C21A] | 0.101

Reference: the RNAGym collection of RNA variant scans (doi:10.7554/elife.80360)
